The target of test [1] is SARS-CoV-2 S1 (residues 1-682, Wuhan-Hu-1), Strep-tagged (SARS-CoV-2, Wuhan-Hu-1, UniProt P0DTC2). Description: ELISA.
Test [2] deals with SARS-CoV-2 S receptor-binding domain (RBD, residues 329-538, Wuhan-Hu-1), Strep-tagged (SARS-CoV-2, Wuhan-Hu-1, UniProt P0DTC2). Description: ELISA. Background: ELISA stands for enzyme-linked immunosorbent assay.

B1: REGN10933 (recombinant human IgG1/kappa) (antibody, V domains shown)
VH: QVQLVESGGGLVKPGGSLRLSCAASGFTFSDYYMSWIRQAPGKGLEWVSYITYSGSTIYYADSVKGRFTISRDNAKSSLYLQMNSLRAEDTAVYYCARDRGTTMVPFDYWGQGTLVTVSS
VL: DIQMTQSPSSLSASVGDRVTITCQASQDITNYLNWYQQKPGKAPKLLIYAASNLETGVPSRFSGSGSGTDFTFTISGLQPEDIATYYCQQYDNLPLTFGGGTKVEIK
In the case of B1, the binding result in test [1] is “binds”.

B2: REGN10987 (recombinant human IgG1/kappa) (antibody, V domains shown)
VH: QVQLVESGGGVVQPGRSLRLSCAASGFTFSNYAMYWVRQAPGKGLEWVAVISYDGSNKYYADSVKGRFTISRDNSKNTLYLQMNSLRTEDTAVYYCASGSDYGDYLLVYWGQGTLVTVSS
VL: QSALTQPASVSGSPGQSITISCTGTSSDVGGYNYVSWYQQHPGKAPKLMIYDVSKRPSGVSNRFSGSKSGNTASLTISGLQSEDEADYYCNSLTSISTWVFGGGTKLTVL
Regarding B2, the binding result in test [1] is “binds”.

B3: 87G7 human monoclonal antibody (recombinant human IgG1/kappa) (antibody, V domains shown)
VH: EVQLLESGGGLVQPGGSLRLSCVASGFTFSSYVMSWVRQAPGKGLEWVAAISGSGGNTYYADSVKGRFTISRDNSKNTLYLQMNSLRAEDTAVYYCAKEGTYYYGSGSFWGQGTLVTVSS
VL: EIVLTQSPATLSLSPGERATLSCRASQSFHNYLAWYQQKPGRAPRLLIFDASNRATGIPARFSGSGSGTDFTLTISSLEPEDFAVYYCQQRFNWPLTFGGGTKVEIK
Consider B3, for which the binding result in test [2] and in test [1] was “binds” in each case.

(Values after paper doi:10.1101/2022.02.17.480751 (bioRxiv, 2022).)
